Columns and labels:
[1] = 1D 1H NMR monomer consumption assay; type: physicochemical; settings: 40 μM peptide, phosphate buffer 20 mM pH 7.2, 25 mM NaCl; after 14 h of incubation at 37 °C; methyl and aromatic 1H signals normalised to DSS
Description: 1D ^1H NMR spectra of the five different Aβ peptides were measured at 5 °C at 400 MHz ^1H Larmor frequency. The samples contained 40-μM peptide in phosphate buffer (20 mM, pH 7.2) with 25-mM NaCl. The aggregation propensity of the Aβ variants were then studied through real-time 1D ^1H NMR experiments at 37 °C continued for 14 h at 1-h intervals. The integrated intensity of ^1H peaks at two regions (0.50–1.05 ppm, 6.50–8.00 ppm), after chemical shift using DSS ([…]) as a reference standard, was then calculated. After normalization by the integrated intensity of the DSS peak at 0 ppm, the relative intensity of the peptide ^1H peaks was used to probe peptide monomer consumption during the early phases of peptide aggregation.

[2] = Transmission electron microscopy (TEM) of aggregates; type: physicochemical; settings: 0.1 mg/mL, HEPES 25 mM pH 7.4, 50 mM NaCl, 3 days at 37 °C with gentle stirring
Description: Peptide samples of 0.1 mg/mL concentration in HEPES buffer (25 mM, pH 7.4, 50 mM NaCl) were incubated at 37 °C with gentle stirring. After 3 days of incubation, samples were diluted, deposited onto carbon-coated copper mesh grids and negatively stained with 2 % (w/v) uranyl acetate. The excess stain was washed away, and the sample grids were allowed to air-dry. The samples were then viewed with a 120-kV transmission electron microscope.

[3] = Far-UV circular dichroism (CD) spectroscopy; type: physicochemical; settings: 0.2 mg/mL, phosphate buffer 20 mM pH 7.2, 20 °C, monomeric state
Description: Samples of 0.2 mg/mL peptide concentration in phosphate buffer (20 mM, pH 7.2) were prepared. The far-UV CD measurements were conducted on a Chirascan CD spectrometer, with a 1-mm path length quartz cell, 1-nm bandwidth and 8-s collection time for each point at 0.5 nm steps between 190 and 260 nm. The buffer spectrum was also measured and subtracted from the spectra of Aβ peptides. The temperature-dependence of secondary structure was studied through far-UV measurements at three different temperatures, 20, 30 and 40 °C. The reversibility of temperature-induced changes was checked with an additional CD spectrum measured after cooling down from 40 to 20 °C. The CD spectrum of the cooled sample was taken after 5 min of equilibration at 20 °C. The 0.2 mg/mL Aβ samples in phosphate buffer (20 mM, pH 7.2) containing 25 mM NaCl were incubated at 37 °C for 3 days with gentle stirring.

[4] = SDS-PAGE Western blot of Aβ peptides (stable aggregates); type: physicochemical; settings: 1 μg peptide, reducing conditions, antiserum 24311; for higher molecular weight oligomers on SDS-PAGE after aging: after 1 and 3 days of aging
Description: Lyophilized Aβ peptides were dissolved in 10-mM NaOH at a concentration of 1 mg/mL, aliquoted in 50 μL volumes, flash-frozen in liquid nitrogen and stored at −80 °C until use. For Western blot analysis under reducing conditions, 1 μg peptides were loaded on 4–12 % VarioGels (Anamed), transferred to 0.45 μm nitrocellulose membranes and detected using the primary antiserum 24311 (pan-Aβ, 1:500) or monoclonal antibody 4G8 (Aβ17-24, Signet; 1:500). For Western blotting of mouse brain, whole brain SDS lysates were used. Running and transfer buffers were applied according to the manufacturer. The blots were developed using enhanced chemiluminescence according to the manufacturer (Roth). Horse radish conjugated swine anti-rabbit antibody was used as a secondary antibody (1:3,000, Dianova).

primary cortical neurons = test: Calcein-AM cell viability assay; type: cell-based, Wistar rat; settings: for effect on cell viability: 24 h incubation with freshly prepared peptide at different concentrations, calcein-AM fluorescence; for toxicity profile compared to vehicle control: ANOVA with Bonferroni multiple comparisons
Description: Cortical neurons from embryonic day 16–17 Wistar rat fetuses were prepared as previously described. In brief, dissociated cortical cells were plated at 50,000 cells/well in 48-well plates precoated with 1.5 mg/mL polyornithine (Sigma). Cells were cultured in a chemically defined Dulbecco’s Modified Eagle’s/F12 medium free of serum (Gibco) and supplemented with hormones, proteins and salts. […] At 6 DIV, the medium was removed and cortical neurons were incubated for 24 h with vehicle (cell culture medium) or Aβ peptides (dissolved in cell culture medium) at the indicated concentrations.
Following a 24-h incubation of primary cortical neurons with Aβ peptides, cell viability was determined using a calcein-AM assay (Invitrogen, Molecular Probes). Briefly, cells were washed twice with PBS and incubated to protect from light for 30 min at room temperature in the presence of 2 μM calcein-AM solution prepared in PBS. Cells were then washed twice with PBS and incubated for 15 min at room temperature in PBS containing 1 % Triton X-100 (v/v). The level of calcein fluorescence was monitored by fluorescence emission at 530 nm after exciting at 485 nm, using a Fluostar microplate reader (BMG-Labtechnologies, France).

C57BL/6 J wildtype mice = test: Y-maze working memory after intracerebroventricular injection of soluble Aβ; type: in vivo, mouse; settings: 50 pmol in 1 μL icv, male C57BL/6 J mice 12-week old, n = 6 per group, Y-maze on day 4, 5-min session
Description: Male C57BL/6 J mice (12-week old, Janvier, Le Genest-St-Isle, France; n = 6 per treatment group) were housed five to six per cage with free access to food and water, and were kept in a constant environment (22 ± 2 °C, 50 ± 5 % humidity, 12-h light cycle). Under anesthetization, freshly prepared Aβ peptides (50 pmol in 1 μL; 0.1 M phosphate-buffered saline (pH 7.4)) or vehicle (0.1 M phosphate-buffered saline) were injected into the right ventricle, with stereotaxic coordinates from the bregma (AP −0.22, L −1.0 and D 2.5 in mm). Intracerebroventricular (icv) injections were made using a 10-μl Hamilton microsyringe fitted with a 26-gauge needle. Four days following icv infusion of Aβ peptides, working memory was assessed using the Y-maze test.
Immediate spatial working memory performance in male C57BL/6 J wildtype mice (12-week old, Janvier, Le Genest-St-Isle, France; n = 6 per treatment group) was assessed by recording spontaneous alternation behavior in a Y-maze as described previously. The Y-maze task was carried out on day 4 after soluble Aβ application. The maze was made of opaque plexiglas and each arm was 40-cm long, 16-cm high, 9-cm wide and positioned at equal angles. Mice were placed at the end of one arm and allowed to move freely through the maze during a 5-min session. The series of arm entries were recorded visually and arm entry was considered to be completed when the hind paws of the mouse were completely placed in the arm. Alternation was defined as successive entries into the three arms on overlapping triplet sets. The percentage alternation was calculated as the ratio of actual (total alternations) to possible alternations (defined as the number of arm entries minus two), multiplied by 100.

[5] = Dynamic light scattering (DLS) of peptide supernatants; type: physicochemical; settings: DLS at 20 °C, 0.2 mg/mL, phosphate buffer 20 mM pH 7.4, 25 mM NaCl; after 24 h at 37 °C without agitation; supernatant after 16,000g 15 min
Description: DLS experiments were performed at 20 °C on a DynaPro Titan (Wyatt Technology Corp., CA) instrument with a scattering angle of 90°. The samples were centrifuged at 16,000g for 15 min, and then the supernatant was taken for DLS measurements. The “monomeric” samples were prepared freshly in phosphate buffer (20 mM, pH 7.4) containing 25 mM NaCl at a peptide concentration of 0.2 mg/mL. The aggregated samples were prepared after incubation at 37 °C for 24 h, without further promotion of aggregation by agitation. The size distribution was determined by a constrained regularization method. The reported scattering intensities are from three separate measurements of the same sample.

| Substance | loss of initial 1H NMR signal intensity (monomer consumption) [1] | aggregate morphology by TEM [2] | secondary structure by far-UV CD spectrum [3] | higher molecular weight oligomers on SDS-PAGE after aging [4] | species on SDS-PAGE, freshly dissolved peptides [4] | effect on cell viability (primary cortical neurons) | toxicity profile compared to vehicle control (primary cortical neurons; 24 h incubation, calcein-AM) | working memory (Y-maze alternation rate) (C57BL/6 J wildtype mice) | hydrodynamic radius of small (main) aggregates [5] | toxicity compared with Aβ4-40 at 5 μM (primary cortical neurons; 24 h incubation, 5 μM, calcein-AM) |
| --- | --- | --- | --- | --- | --- | --- | --- | --- | --- | --- |
| Aβ4-38: amyloid β (Aβ) variant, N-truncated, purchased from PSL | rose slightly in intensity | clumps of fibrillar aggregates | unstructured in the monomeric state | not | monomers, dimers but no other oligomers | dose-dependent reduction in cell viability | only toxic at 10 μM | behaved like vehicle controls and learned well | – | – |
| Aβ1-42: full-length amyloid β 1-42, purchased from PSL [reference compound] | around 5% | – | unstructured in the monomeric state | higher molecular weight oligomers in addition | monomers and aggregates most likely representing trimer/tetramers | dose-dependent reduction in cell viability | strongest toxic effect | performed at chance level and showed a significant and robust deficit in working memory | 5–10 nm | more potent than Aβ4-40 |
| Aβ4-40: amyloid β (Aβ) variant, N-truncated, purchased from PSL | around 5% | clumps of fibrillar aggregates | unstructured in the monomeric state | not | monomers, dimers but no other oligomers | dose-dependent reduction in cell viability | – | significantly reduced | – | – |
